# In paper PMC7992120 (2018):
# Target: linearized DAKD (N-methyl F6) (Homo sapiens, backbone amide N-methylation at F6 of peptide)
# Assay: radioligand competition binding
binder,measurement,value
B1 bradykinin receptor (B1R) (protein) MASSWPPLELQSSNQSQLFPQNATACDNAPEAWDLLHRVLPTFIISICFFGLLGNLFVLLVFLLPRRQLNVAEIYLANLAASDLVFVLGLPFWAENIWNQFNWPFGALLCRVINGVIKANLFISIFLVVAISQDRYRVLVHPMASRRQQRRRQARVTCVLIWVVGGLLSIPTFLLRSIQAVPDLNITACILLLPHEAWHFARIVELNILGFLLPLAAIVFFNYHILASLRTREEVSRTRCGGRKDSKTTALILTLVVAFLVCWAPYHFFAFLEFLFQVQAVRGCFWEDFIDLGLQLANFFAFTNSSLNPVIYVFVGRLFRTKVWELYKQCTPKSLAPISSSHRKEIFQLFWRN,Ki,2030 nM
